6 molecules from US20130157929A1, “GLUCAGON ANALOGUES” (ZEALAND PHARMA A/S, published 2013) can be followed below.

Starred links: 1 amine or outer side, 2 acyl side, 3 side chain; linkers in the order of their positions; H or OH if unused. Non-standard residues stand in square brackets, D forms with d. Groups on a side chain read outwards from the residue. *: point of attachment. γGlu = O=C(O)[C@H](CCC(=O)[*:2])N[*:1]; Palmitoyl = CCCCCCCCCCCCCCCC(=O)*; Aib = CC(C)(N)C(=O)O

The chains are these.
B1: Compound 7 (peptide)
peptide: H-H[Aib]EGTFTSDYSKYLDSK([γGlu-Palmitoyl])AAHDFVEWLLSA-NH2
SMILES: CCCCCCCCCCCCCCCC(=O)N[C@@H](CCC(=O)NCCCC[C@H](NC(=O)[C@H](CO)NC(=O)[C@H](CC(=O)O)NC(=O)[C@H](CC(C)C)NC(=O)[C@H](Cc1ccc(O)cc1)NC(=O)[C@H](CCCCN)NC(=O)[C@H](CO)NC(=O)[C@H](Cc1ccc(O)cc1)NC(=O)[C@H](CC(=O)O)NC(=O)[C@H](CO)NC(=O)[C@@H](NC(=O)[C@H](Cc1ccccc1)NC(=O)[C@@H](NC(=O)CNC(=O)[C@H](CCC(=O)O)NC(=O)C(C)(C)NC(=O)[C@@H](N)Cc1c[nH]cn1)[C@@H](C)O)[C@@H](C)O)C(=O)N[C@@H](C)C(=O)N[C@@H](C)C(=O)N[C@@H](Cc1c[nH]cn1)C(=O)N[C@@H](CC(=O)O)C(=O)N[C@@H](Cc1ccccc1)C(=O)N[C@H](C(=O)N[C@@H](CCC(=O)O)C(=O)N[C@@H](Cc1c[nH]c2ccccc12)C(=O)N[C@@H](CC(C)C)C(=O)N[C@@H](CC(C)C)C(=O)N[C@@H](CO)C(=O)N[C@@H](C)C(N)=O)C(C)C)C(=O)O
B2: Compound 4 (peptide)
peptide: H-H[Aib]PGTFTSDYSKYLDSK([γGlu-Palmitoyl])AAHDFVEWLLSA-NH2
SMILES: CCCCCCCCCCCCCCCC(=O)N[C@@H](CCC(=O)NCCCC[C@H](NC(=O)[C@H](CO)NC(=O)[C@H](CC(=O)O)NC(=O)[C@H](CC(C)C)NC(=O)[C@H](Cc1ccc(O)cc1)NC(=O)[C@H](CCCCN)NC(=O)[C@H](CO)NC(=O)[C@H](Cc1ccc(O)cc1)NC(=O)[C@H](CC(=O)O)NC(=O)[C@H](CO)NC(=O)[C@@H](NC(=O)[C@H](Cc1ccccc1)NC(=O)[C@@H](NC(=O)CNC(=O)[C@@H]1CCCN1C(=O)C(C)(C)NC(=O)[C@@H](N)Cc1c[nH]cn1)[C@@H](C)O)[C@@H](C)O)C(=O)N[C@@H](C)C(=O)N[C@@H](C)C(=O)N[C@@H](Cc1c[nH]cn1)C(=O)N[C@@H](CC(=O)O)C(=O)N[C@@H](Cc1ccccc1)C(=O)N[C@H](C(=O)N[C@@H](CCC(=O)O)C(=O)N[C@@H](Cc1c[nH]c2ccccc12)C(=O)N[C@@H](CC(C)C)C(=O)N[C@@H](CC(C)C)C(=O)N[C@@H](CO)C(=O)N[C@@H](C)C(N)=O)C(C)C)C(=O)O
B3: Compound 9 (peptide)
peptide: H-HSQ[Aib]TFTSDYSKYLDSK([γGlu-Palmitoyl])AAHDFVEWLLSA-NH2
SMILES: CCCCCCCCCCCCCCCC(=O)N[C@@H](CCC(=O)NCCCC[C@H](NC(=O)[C@H](CO)NC(=O)[C@H](CC(=O)O)NC(=O)[C@H](CC(C)C)NC(=O)[C@H](Cc1ccc(O)cc1)NC(=O)[C@H](CCCCN)NC(=O)[C@H](CO)NC(=O)[C@H](Cc1ccc(O)cc1)NC(=O)[C@H](CC(=O)O)NC(=O)[C@H](CO)NC(=O)[C@@H](NC(=O)[C@H](Cc1ccccc1)NC(=O)[C@@H](NC(=O)C(C)(C)NC(=O)[C@H](CCC(N)=O)NC(=O)[C@H](CO)NC(=O)[C@@H](N)Cc1c[nH]cn1)[C@@H](C)O)[C@@H](C)O)C(=O)N[C@@H](C)C(=O)N[C@@H](C)C(=O)N[C@@H](Cc1c[nH]cn1)C(=O)N[C@@H](CC(=O)O)C(=O)N[C@@H](Cc1ccccc1)C(=O)N[C@H](C(=O)N[C@@H](CCC(=O)O)C(=O)N[C@@H](Cc1c[nH]c2ccccc12)C(=O)N[C@@H](CC(C)C)C(=O)N[C@@H](CC(C)C)C(=O)N[C@@H](CO)C(=O)N[C@@H](C)C(N)=O)C(C)C)C(=O)O
B4: human GLP-1 (ligand)
peptide: RSLQDTEEKSRSFSASQADPLSDPDQMNEDKRHSQGTFTSDYSKYLDSRRAQDFVQWLMNTKRNRNNIAKRHDEFERHAEGTFTSDVSSYLEGQAAKEFIAWLVKGRGRRDFPEEVAIVEELGRRHADGSFSDEMNTILDNLAARDFINWLIQTKITDRK
B5: Compound 8 (peptide)
peptide: H-H[Aib]QATFTSDYSKYLDSK([γGlu-Palmitoyl])AAHDFVEWLLSA-NH2
SMILES: CCCCCCCCCCCCCCCC(=O)N[C@@H](CCC(=O)NCCCC[C@H](NC(=O)[C@H](CO)NC(=O)[C@H](CC(=O)O)NC(=O)[C@H](CC(C)C)NC(=O)[C@H](Cc1ccc(O)cc1)NC(=O)[C@H](CCCCN)NC(=O)[C@H](CO)NC(=O)[C@H](Cc1ccc(O)cc1)NC(=O)[C@H](CC(=O)O)NC(=O)[C@H](CO)NC(=O)[C@@H](NC(=O)[C@H](Cc1ccccc1)NC(=O)[C@@H](NC(=O)[C@H](C)NC(=O)[C@H](CCC(N)=O)NC(=O)C(C)(C)NC(=O)[C@@H](N)Cc1c[nH]cn1)[C@@H](C)O)[C@@H](C)O)C(=O)N[C@@H](C)C(=O)N[C@@H](C)C(=O)N[C@@H](Cc1c[nH]cn1)C(=O)N[C@@H](CC(=O)O)C(=O)N[C@@H](Cc1ccccc1)C(=O)N[C@H](C(=O)N[C@@H](CCC(=O)O)C(=O)N[C@@H](Cc1c[nH]c2ccccc12)C(=O)N[C@@H](CC(C)C)C(=O)N[C@@H](CC(C)C)C(=O)N[C@@H](CO)C(=O)N[C@@H](C)C(N)=O)C(C)C)C(=O)O
B6: Compound 5 (peptide)
peptide: H-H[Aib]HGTFTSDYSKYLDSK([γGlu-Palmitoyl])AAHEFVEWLLEA-NH2
SMILES: CCCCCCCCCCCCCCCC(=O)N[C@@H](CCC(=O)NCCCC[C@H](NC(=O)[C@H](CO)NC(=O)[C@H](CC(=O)O)NC(=O)[C@H](CC(C)C)NC(=O)[C@H](Cc1ccc(O)cc1)NC(=O)[C@H](CCCCN)NC(=O)[C@H](CO)NC(=O)[C@H](Cc1ccc(O)cc1)NC(=O)[C@H](CC(=O)O)NC(=O)[C@H](CO)NC(=O)[C@@H](NC(=O)[C@H](Cc1ccccc1)NC(=O)[C@@H](NC(=O)CNC(=O)[C@H](Cc1c[nH]cn1)NC(=O)C(C)(C)NC(=O)[C@@H](N)Cc1c[nH]cn1)[C@@H](C)O)[C@@H](C)O)C(=O)N[C@@H](C)C(=O)N[C@@H](C)C(=O)N[C@@H](Cc1c[nH]cn1)C(=O)N[C@@H](CCC(=O)O)C(=O)N[C@@H](Cc1ccccc1)C(=O)N[C@H](C(=O)N[C@@H](CCC(=O)O)C(=O)N[C@@H](Cc1c[nH]c2ccccc12)C(=O)N[C@@H](CC(C)C)C(=O)N[C@@H](CC(C)C)C(=O)N[C@@H](CCC(=O)O)C(=O)N[C@@H](C)C(N)=O)C(C)C)C(=O)O

One test concerns the target human glucagon receptor (glucagon-R) (human, UniProt P47871). Nature of the test: cell-based or functional assay.
As for B1, the “EC50 (nM) GluR, cAMP formation” value came to 26 nM.
Regarding B2, the “EC50 (nM) GluR, cAMP formation” value was 0.48 nM.
Same read-out and setting: the same measure for B3: 30 nM; for B4: 100000 nM.
For B5, the “EC50 (nM) GluR, cAMP formation” value came out at 3 nM and the “EC50 (nM) GluR, cAMP formation, earlier determination” value stood at 23 nM.
B6: the “EC50 (nM) GluR, cAMP formation” value was found to be 0.15 nM.

The target in another test is human glucagon-like peptide 1 receptor (GLP-1R) (human, UniProt P43220). Nature of the test: cell-based or functional assay.
As to B1, the “EC50 (nM) GLP-1R, cAMP formation” value was found to be 0.01 nM.
The same measure, in the same setting: the same measure for B2: 0.1 nM.
Still for that read-out and setting: with B3 the figure was 16 nM.
Take B5: the “EC50 (nM) GLP-1R, cAMP formation” value was determined as 8.2 nM.
Same read-out and setting: the same measure for B6: 0.16 nM.
